Measured values: patent US20240238380A1, “COMPOSITION FOR COMBINATION THERAPY COMPRISING GROWTH DIFFERENTIATION FACTOR-15 VARIANT AND GLUCAGON-LIKE PEPTIDE-1 RECEPTOR AGONIST” (YUHAN CORPORATION, priority 2021, published 2024)
Marks after values point to notes of the source that are not given here.

Experiments:
[1] = Inhibitory effect on gastric emptying (acetaminophen exposure) in normal rats (Example 8); assay type: in vivo; conditions: rats, 30 mg/kg oral, positive control
Experimental: Therefore, this example was performed to investigate the inhibitory effect on gastric emptying when the novel long-acting GDF15 fusion protein was administered at the doses equal to the effective dose, higher than the maximum effective dose, or in combination with a GLP-1 receptor agonist to rats. 6-week-old male SD rats (Orient Bio, Republic of Korea) were purchased from Hallym Lab. Animal Inc., Republic of Korea. Animals were acclimated for 7 days. On the day of drug administration, the rats were grouped based on the average body weight of individual rats (n=5 per group) and fasted for at least 6 hours before oral administration of acetaminophen. Then, 0.1, 1, and 10 nmol/kg of FM9-6+Fc_hole, 10 nmol/kg of semaglutide (long-acting GLP-1 derivative, SEQ ID NO: 114), and combination of FM9-6+Fc_hole and semaglutide (1+10 nmol/kg) were subcutaneously administered. The semaglutide was Ozempic® (semaglutide) from Novo NorDisk. As a negative control drug, D-PBS (normal vehicle) was subcutaneously administered, and as a positive control drug, 30 mg/kg of loperamide was orally administered 45 minutes before acetaminophen administration. On 3, 24 and 72 hours after a single dose of the test articles, acetaminophen was orally administered at 100 mg/kg to rats, and blood samples were collected before and at 30, 60, 90, 120 and 150 minutes after acetaminophen administration. The plasma concentration of acetaminophen was analyzed, and the pharmacokinetic profiles and the systemic exposures of acetaminophen were compared to evaluate the inhibitory effect on gastric emptying among the groups.

[2] = molecular target: T1, GFRAL/RET/SRE-luc-overexpressing HEK293 cell line (Homo sapiens, UniProt Q6UXV0); assay: Functional activity of long-acting GDF15 fusion protein (Bright-Glo luciferase assay); assay type: cell-based; conditions: for EC50: luciferase RLU, 4 hours reaction; for Emax (%): relative to FM9-6+Fc_hole (Emax 100%); for EC50 values (in words) / Emax values (in words): compared with the other linkers
T1 construct: expressed in transfected cells; host or cells: HEK293 (human embryonic kidney 293), overexpressing GFRAL, RET and an SRE-luciferase reporter
Experimental: Two variants (FM9+Fc_hole, FM11+Fc_hole) were compared and evaluated for GDF15 activity depending on the linker type and length. The GDF15 activity was measured using a Bright-Glo™ luciferase assay kit (Promega) and a GFRAL/RET/SRE-luc-overexpressing HEK293 cell line (Human embryonic kidney 293).
Specifically, 1×10^5 GFRAL/RET/SRE-luc-overexpressing HEK293 cells were dispended in DMEM containing 10% FBS in each well of a 96-well-plate, followed by culture at 37° C. and 5% CO2 for 24 hours. After 24 hours, each medium of the 96-well plate was replaced with 50 μl of a serum-free medium, followed by culture at 37° C. and 5% CO2 for 4 hours.
In addition, the long-acting GDF15 fusion protein produced in Example 1 was prepared by 3-fold serial dilution from a concentration of 2000 nM using a serum-free medium. Thereafter, 50 μl of the long-acting GDF15 fusion protein dilution was added to each well containing 50 μl of the replaced serum-free medium and the GERAL/RET/SRE-luc cell line so that the actual concentration thereof was serially diluted 3-fold from 1000 nM, followed by reaction at 37° C. and 5% CO2 for 4 hours. After 4 hours, each well was treated with 100 μl of a Bright-Glo™ solution prepared by adding a Bright-Glo™ buffer to a Bright-Glo™ substrate, followed by reaction at room temperature for 1 minute.
Thereafter, the reaction value (relative light units, RLU) was measured using a microplate reader (Perkin Elmer, Wallac Victor X5) capable of measuring luminescence. The results thereof are shown in Table 2 below and in FIGS. 1 and 2. Here, the functional activity of the long-acting GDF15 fusion protein depending on the GDF15 sequence, linker type, and length was compared based on the in-vitro GDF15 activity of FM9-6+Fc_hole (Emax 100%).

[3] = Pharmacokinetics of long-acting GDF15 fusion protein (dimer) in C57BL/6N mice; assay type: in vivo; conditions: 1 mg/kg subcutaneous; for Cmax: active GDF15 in serum by ELISA
Experimental: 6-week-old male C57BL/6N mice (Orient Bio, Republic of Korea) were purchased from Hallym Lab. Animal Inc., Republic of Korea. Animals were acclimated for 7 days, and on the day of drug administration, the mice were grouped based on the average body weight of individual mice (n=3 per blood sampling time per group). Then, FM9-4+Fc_hole, FM9-6+Fc_hole, FM11-4+Fc_hole, and FM11-6+Fc_hole were subcutaneously administered at 1 mg/kg to each group, and blood samples were collected at 4, 24, 48, 72, 96, 120, 168, and 240 hours after administration. Determination of active GDF15 in serum was achieved by enzyme-linked immunosorbent assay (ELISA), and pharmacokinetic parameters of each long-acting GDF15 fusion protein (dimer) are shown in Table 3 below.

T1 sequence (Q6UXV0 19-394, species assumed): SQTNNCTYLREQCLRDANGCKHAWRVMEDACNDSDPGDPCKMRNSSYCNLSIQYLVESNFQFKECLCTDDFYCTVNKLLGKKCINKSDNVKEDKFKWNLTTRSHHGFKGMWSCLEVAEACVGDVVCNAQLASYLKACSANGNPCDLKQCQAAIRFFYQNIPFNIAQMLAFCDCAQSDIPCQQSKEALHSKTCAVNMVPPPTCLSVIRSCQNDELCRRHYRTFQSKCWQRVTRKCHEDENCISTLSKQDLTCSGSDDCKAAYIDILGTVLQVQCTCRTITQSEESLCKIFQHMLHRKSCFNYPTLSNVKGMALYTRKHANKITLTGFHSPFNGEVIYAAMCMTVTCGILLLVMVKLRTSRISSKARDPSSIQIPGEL
T1 sequence (P07949 29-1114 partner, species assumed): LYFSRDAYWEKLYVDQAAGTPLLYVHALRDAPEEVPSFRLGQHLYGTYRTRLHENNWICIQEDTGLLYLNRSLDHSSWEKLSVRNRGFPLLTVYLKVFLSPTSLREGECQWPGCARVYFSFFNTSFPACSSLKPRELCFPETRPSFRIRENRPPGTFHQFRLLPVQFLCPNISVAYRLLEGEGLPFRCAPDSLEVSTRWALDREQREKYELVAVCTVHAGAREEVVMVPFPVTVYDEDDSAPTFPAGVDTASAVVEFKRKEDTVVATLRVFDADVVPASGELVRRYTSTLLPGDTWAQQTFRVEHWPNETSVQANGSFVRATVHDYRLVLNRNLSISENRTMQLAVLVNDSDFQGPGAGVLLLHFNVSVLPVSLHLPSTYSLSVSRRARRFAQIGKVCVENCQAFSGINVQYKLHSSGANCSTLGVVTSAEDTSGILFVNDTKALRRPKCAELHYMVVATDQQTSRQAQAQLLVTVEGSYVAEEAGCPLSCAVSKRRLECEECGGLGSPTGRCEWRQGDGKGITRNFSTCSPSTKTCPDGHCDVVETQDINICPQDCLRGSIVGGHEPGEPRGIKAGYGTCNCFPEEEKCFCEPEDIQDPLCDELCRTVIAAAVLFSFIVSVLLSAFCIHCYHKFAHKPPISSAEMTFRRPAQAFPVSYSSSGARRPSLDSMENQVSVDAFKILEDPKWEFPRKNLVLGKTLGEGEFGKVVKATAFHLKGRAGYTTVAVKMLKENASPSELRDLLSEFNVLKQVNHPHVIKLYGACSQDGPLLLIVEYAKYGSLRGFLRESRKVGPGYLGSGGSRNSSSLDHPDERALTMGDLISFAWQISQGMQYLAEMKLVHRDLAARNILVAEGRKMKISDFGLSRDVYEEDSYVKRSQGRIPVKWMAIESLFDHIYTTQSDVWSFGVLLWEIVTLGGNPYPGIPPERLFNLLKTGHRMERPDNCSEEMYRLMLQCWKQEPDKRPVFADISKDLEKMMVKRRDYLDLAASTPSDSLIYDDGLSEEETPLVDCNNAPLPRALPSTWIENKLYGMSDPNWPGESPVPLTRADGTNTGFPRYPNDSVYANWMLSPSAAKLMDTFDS

| Molecule | EC50 [2] [nM] | Emax (%) [2] [%] | AUClast [3] [µg·h/mL] | CL/F [3] [mL/h/kg] | T1/2,app [3] [h] | Tmax [3] [h] | Cmax [3] [ng/mL] | other results |
| --- | --- | --- | --- | --- | --- | --- | --- | --- |
| CN(C)C(=O)C(CCN1CCC(O)(c2ccc(Cl)cc2)CC1)(c1ccccc1)c1ccccc1 [Loperamide, loperamide, reference compound] | – | – | – | – | – | – | – | AUClast of acetaminophen (μg · min/mL), 3 hr ([1]; 3 hr): 1565.13 µg·min/mL; AUClast of acetaminophen (μg · min/mL), 24 hr ([1]; 24 hr): 761.04** μg · min/mL; AUClast of acetaminophen (μg · min/mL), 72 hr ([1]; 72 hr): 996.36*** μg · min/mL |
| FM9-2 + Fc_hole: long-acting GDF15 fusion protein (dimer): GDF15 ΔN2, S64R, IgG1 Fc_knob/Fc_hole, linker GS(G4S)5; SEQ ID NOs: 99 and 47 | 9.5 | 110.8 | – | – | – | – | – | – |
| FM9-3 + Fc_hole: long-acting GDF15 fusion protein (dimer): GDF15 ΔN2, S64R, IgG1 Fc_knob/Fc_hole, linker GS(G4S)7; SEQ ID NOs: 100 and 47 | 9.3 | 95.6 | – | – | – | – | – | – |
| FM9-4 + Fc_hole: long-acting GDF15 fusion protein (dimer): GDF15 ΔN2, S64R, IgG1 Fc_knob/Fc_hole, linker GS(EEEA)6; SEQ ID NOs: 101 and 47 | – | – | 750.49702 | 1.30 | 36.84 | 24 | 8421.37 | EC50 values (in words) [2]: relatively low EC50 values; Emax values (in words) [2]: high Emax values |
| FM11-2 + Fc_hole: long-acting GDF15 fusion protein (dimer): GDF15 ΔN3, G4N, D5S, H6T, S64R, IgG1 Fc_knob/Fc_hole, linker GS(G4S)5; SEQ ID NOs: 105 and 47 | 7.7 | 79.4 | – | – | – | – | – | – |
| FM11-3 + Fc_hole: long-acting GDF15 fusion protein (dimer): GDF15 ΔN3, G4N, D5S, H6T, S64R, IgG1 Fc_knob/Fc_hole, linker GS(G4S)7; SEQ ID NOs: 106 and 47 | 7.8 | 81.0 | – | – | – | – | – | – |
| FM11-4 + Fc_hole: long-acting GDF15 fusion protein (dimer): GDF15 ΔN3, G4N, D5S, H6T, S64R, IgG1 Fc_knob/Fc_hole, linker GS(EEEA)6; SEQ ID NOs: 107 and 47 | – | – | 690.21308 | 1.41 | 40.61 | 24 | 7200.02 | EC50 values (in words) [2]: relatively low EC50 values; Emax values (in words) [2]: high Emax values |
| FM11-6 + Fc_hole: long-acting GDF15 fusion protein (dimer): GDF15 ΔN3, G4N, D5S, H6T, S64R, IgG1 Fc_knob/Fc_hole, linker GS(EAAAK)5; SEQ ID NOs: 109 and 47 | – | – | 116.43394 | 8.43 | 25.84 | 24 | 1547.77 | – |
